Laboratory results as given in patent publication US20240059769A1 (BIOLOJIC DESIGN, published 2024).
Read-outs that look alike come from different tables or passages of the source.

Legend:
recombinant human IL-13 [1] = molecular target: T1, recombinant human IL-13 (human, UniProt P35225 35-146); experiment: cell-based or functional assay
[2] = molecular target: T2, recombinant cynomolgus monkey IL-13 (cynomolgus monkey, UniProt Q0PW92 21-132); experiment: SPR
T2 construct: bought; also called rc-IL-13; cIL-13

hTSLP-His [3] = molecular target: T3, hTSLP-His (human, UniProt Q969D9 29-159, limits assumed); experiment: competition ELISA, 7 nM TSLP-His pre-incubated with antibody; competitor Tezepelumab coated
T3 construct: bought; also called hTSLP (ACROBiosystems TSP-H52Hb); not shown: His tag

hTSLP-His [4] = molecular target: T3, hTSLP-His; experiment: cell-based or functional assay
human TSLP [5] = molecular target: T4, human TSLP (human, UniProt Q969D9 29-159); experiment: SPR
T4 construct: also called hTSLP; rhTSLP

recombinant human IL-13 [6] = molecular target: T1, recombinant human IL-13; experiment: SPR
[7] = molecular target: T5, cynomolgus monkey (cyno) TSLP (cynomolgus monkey, UniProt A0A7N9CAT7 29-159); experiment: SPR
T5 construct: also called cTSLP; cynomolgus TSLP

human TSLP [8] = molecular target: T4, human TSLP; experiment: cell-based or functional assay
recombinant human IL-13 [9] = molecular target: T1, recombinant human IL-13; experiment: cell-based or functional assay; remark: listed apart in the source
human TSLP [10] = molecular target: T4, human TSLP; experiment: SPR; remark: listed apart in the source
recombinant human IL-13 [11] = molecular target: T1, recombinant human IL-13; experiment: SPR; remark: listed apart in the source

T2 sequence (Q0PW92 entry or part of it): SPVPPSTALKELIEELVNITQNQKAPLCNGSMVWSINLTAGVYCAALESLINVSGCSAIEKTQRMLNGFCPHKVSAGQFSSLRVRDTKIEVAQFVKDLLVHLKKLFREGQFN
T1 sequence (P35225 35-146 limits assumed): as the sequence (Q0PW92 entry or part of it) above, with S1G, K10R, V42M, N67S, R83H, V100L counted along it
T5 sequence (A0A7N9CAT7 entry or part of it): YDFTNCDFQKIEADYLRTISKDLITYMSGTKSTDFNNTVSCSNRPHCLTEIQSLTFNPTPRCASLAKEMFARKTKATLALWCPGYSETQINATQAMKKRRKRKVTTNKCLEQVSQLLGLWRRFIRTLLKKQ

Row | Binder | HEK-IL-13 [nM] (IC50, STAT6 reporter) (recombinant human IL-13 [1]) | Kd [2] | koff [2] | kon [2] | IC50 (hTSLP-His [3]) | IC50 [pM], STAT5 phosphorylation inhibition in MUTZ5 cells (hTSLP-His [4]) | Kd (human TSLP [5]) | koff (human TSLP [5]) | kon (human TSLP [5]) | Kd [7] | koff [7] | kon [7] | IC50 TARC (human TSLP [8]) | IC50 CD23 (recombinant human IL-13 [9]) | Kd (human TSLP [10]) | koff (human TSLP [10]) | kon (human TSLP [10]) | Kd (recombinant human IL-13 [11]) | koff (recombinant human IL-13 [11]) | kon (recombinant human IL-13 [11]) | also measured
1 | BDG38.132 (antibody, V domains shown, IgG1) VH: QMQLVESGGGVVQPGRSLRLSCAASGFEFRTYGMHWVRQAPGKGLEWVGVIWDDGSNTHYADSVKGRFTITRDNSKNTLNLQMNSLRAEDTAVYYCVRAPQWYLTAEAFDLWGQGTMVTVSS VL: SYILTQPPSVSVAPGETATITCGGNLIGARLVHWYQQKPGQAPVLVIYDDSDRPSRIPERFSGSNIGNTATLTISRVEAGDEADYYCQVWDYSSDHMVFGGGTKLTVL | 0.0899 nM | 56.3 pM | 0.00201 s⁻¹ | 3.58e+07 M⁻¹ s⁻¹ | 9200 pM | 0.386 pM | 3.41 pM | 3.55e-05 s⁻¹ | 1.04e+07 M⁻¹ s⁻¹ | 0.321 pM | 2.19e-06 s⁻¹ | 6.83e+06 M⁻¹ s⁻¹ | 22400 pM | 430 pM |  |  |  |  |  |  | Kd (recombinant human IL-13 [6]): 17.8 pM; koff (recombinant human IL-13 [6]): 0.000184 s⁻¹; kon (recombinant human IL-13 [6]): 1.03e+07 M⁻¹ s⁻¹
2 | BDG38.135 (antibody, V domains shown) VH: QMQLVESGGGVVQPGQSLRLSCAASGFAFRTYGMHWVRQAPGKGLEWLAVIWYDGSNTHYADSVKGRFTITRDNSKNTLNLQMNSLRAEDTAVYYCVRAPQWYNSAEAFDLWGQGTMVTVSS VL: SYVLTQPPSVSVAPGQTARITCGGNLIGARLVHWYQQKPGQAPVLVVYDDSDRPSHIPERFSGSNSGNTATLTISRVEAGDEADYYCQVWDHSADTMVFGGGTKLTVL | 0.406 nM |  |  |  |  |  |  |  |  |  |  |  | 804 pM | 408 pM |  |  |  |  |  |  | 
3 | BDG38.092 (antibody, V domains shown, IgG1) VH: QMQLVESGGGVVQPGRSLTLSCAASGFEFRTYGMHWVRQAPGKGLEWLAVIWDDGSNTHYADSVKGRFTITRDNSKNTLNLQMNSLRVEDTAVYYCVRAPQWYLTAEAFDLWGQGTMVTVSS VL: SYVLTQPPSVSVAPGETATITCGGNLIGARLVHWYQQKPGQAPVLVIYDDSDRPSRIPERFSGSNIGNTATLTISDVEEGDEADYYCQVWDYYSDHMVFGGGTKLTVL | 0.12 nM | 42.8 pM | 0.00129 s⁻¹ | 3.01e+07 M⁻¹ s⁻¹ | 7380 pM | 33 pM |  |  |  | 4.48 pM | 1.72e-05 s⁻¹ | 3.84e+06 M⁻¹ s⁻¹ | 5880 pM | 67.5 pM | 3.92 pM | 2.46e-05 s⁻¹ | 6.28e+06 M⁻¹ s⁻¹ | 9.5 pM | 5.37e-05 s⁻¹ | 5.65e+06 M⁻¹ s⁻¹ | 
4 | BDG38.090 (antibody, V domains shown, IgG1) VH: QMQLVESGGGVVQPGRSLTLSCAASGFEFRTYGMHWVRQAPGKGLEWLGVIWDDGSNTHYADSVKGRFTITRDNSKNTLNLQMNSLRVEDTAVYYCARAPQWYLTAEAFDLWGQGTMVTVSS VL: SYILTQPPSVSVAPGETARITCGGNLIGARLVHWYQQKPGQAPVLVVYDDSDRPSRIPERFSGSNIGNTATLTIEDVEEGDEADYYCQVWDYYSDHMVFGGGTKLTVL | 0.103 nM | 75.2 pM | 0.00187 s⁻¹ | 2.49e+07 M⁻¹ s⁻¹ | 7310 pM | 43.4 pM |  |  |  | 9.01 pM | 5.53e-05 s⁻¹ | 6.14e+06 M⁻¹ s⁻¹ | 7.55 pM | 6.56 pM | 11.8 pM | 0.000113 s⁻¹ | 9.57e+06 M⁻¹ s⁻¹ | 19.8 pM | 0.00013 s⁻¹ | 6.57e+06 M⁻¹ s⁻¹ | 
5 | BDG38.112 (antibody, V domains shown, IgG1) VH: QMQLVESGGGVVQPGRSLRLSCAASGFEFRTYGMHWVRQAPGKGLEWLGVIWYDGSNTHYADSVKGRFTITRDNSKNTLNLQMNSLRAEDTAVYYCVRAPQWYLTAEAFDLWGQGTMVTVSS VL: SYILTQPPSVSVAPGQTATITCGGNLIGARLVHWYQQKPGQAPVLVIYDDSDRPSRIPERFSGSNIGNTATLTIERVEEGDEADYYCQVWDYSSDTYVFGGGTKLTVL | 0.0367 nM |  |  |  | 29100 pM | 11400 pM |  |  |  |  |  |  | 104 pM | 59.4 pM | 258 pM | 0.000274 s⁻¹ | 1.06e+06 M⁻¹ s⁻¹ | 17.3 pM | 4.02e-05 s⁻¹ | 2.32e+06 M⁻¹ s⁻¹ | 
6 | BDG38.137 (antibody, V domains shown, IgG1) VH: QMQLVESGGGVVQPGQSLRLSCAASGFEFRTYGMHWVRQAPGKGLEWVAVIWDDGSNTHYADSVKGRFTITRDNSKNTLNLQMNSLRAEDTAVYYCVRAPQWYLTAEAFDLWGQGTMVTVSS VL: SYVLTQPPSVSVAPGETATITCGGNLIGARLVHWYQQKPGQAPVLVIYDDSDRPSHIPERFSGSNSGNTATLTISRVEAGDEADYYCQVWDYSADTMVFGGGTKLTVL | 0.195 nM |  |  |  | 10900 pM | 1.85 pM | 16.1 pM | 7.01e-05 s⁻¹ | 4.36e+06 M⁻¹ s⁻¹ |  |  |  | 823 pM | 373 pM |  |  |  |  |  |  | Kd (recombinant human IL-13 [6]): 58 pM; koff (recombinant human IL-13 [6]): 0.000252 s⁻¹; kon (recombinant human IL-13 [6]): 4.34e+06 M⁻¹ s⁻¹

Further lines, with some results ahead:

Row | HEK-IL-13 [nM] (IC50, STAT6 reporter) (recombinant human IL-13 [1]) | Kd [2] | koff [2] | kon [2] | IC50 (hTSLP-His [3]) | IC50 [pM], STAT5 phosphorylation inhibition in MUTZ5 cells (hTSLP-His [4]) | Kd (human TSLP [5]) | koff (human TSLP [5]) | kon (human TSLP [5]) | Kd [7] | koff [7] | kon [7] | IC50 TARC (human TSLP [8]) | IC50 CD23 (recombinant human IL-13 [9]) | Kd (human TSLP [10]) | koff (human TSLP [10]) | kon (human TSLP [10]) | Kd (recombinant human IL-13 [11]) | koff (recombinant human IL-13 [11]) | kon (recombinant human IL-13 [11]) | Binder | also measured
7 | 0.0494 nM | 822 pM | 0.00671 s⁻¹ | 8.16e+06 M⁻¹ s⁻¹ | 5380 pM | 30.1 pM |  |  |  | 0.00512 pM | 3.99e-08 s⁻¹ | 7.8e+06 M⁻¹ s⁻¹ | 3210 pM | 308 pM | 1.61 pM | 3.22e-05 s⁻¹ | 2e+07 M⁻¹ s⁻¹ | 35.4 pM | 0.000231 s⁻¹ | 6.53e+06 M⁻¹ s⁻¹ | BDG38.076 (antibody, V domains shown, IgG1) VH: QMQLVESGGGVVQPGRSLRLSCAASGFAFRTYGMHWVRQAPGKGLEWVAVIWDDGSATHYADSVKGRFTITRDNSKNTLNLQMNSLRAEDTAVYYCVRAPQWYLTAEAFDLWGQGTMVTVSS VL: SYVLTQPPSVSVAPGETASITCGGNMIGGYLVHWYQQKPGQAPLLVIYDDVDRPARIPERFSGSNSGNTATLTISRVEAGDEADYYCQVWDHDTNHMVFGGGTKLTVL | 
8 | 0.15 nM | 44.2 pM | 0.00242 s⁻¹ | 5.47e+07 M⁻¹ s⁻¹ | 5870 pM |  |  |  |  | 18.1 pM | 6.14e-05 s⁻¹ | 3.39e+06 M⁻¹ s⁻¹ | 23400 pM | 250 pM | 21 pM | 0.000133 s⁻¹ | 6.33e+06 M⁻¹ s⁻¹ | 25.1 pM | 0.000155 s⁻¹ | 6.19e+06 M⁻¹ s⁻¹ | BDG38.096 (antibody, V domains shown, IgG1) VH: QMQLVESGGGVVQPGRSLRLSCAASGFEFRTYGMHWVRQAPGKGLEWVAVIWDDGSNTHYADSVKGRFTITRDNSKNTLNLQMNSLRVEDTAVYYCVRAPQWYLTAEAFDLWGQGTMVTVSS VL: SYILTQPPSVSVAPGETARITCGGNLIGARLVHWYQQKPGQAPVLVIYDDSDRPSRIPERFSGSNIGNTATLTISRVEEGDEADYYCQVWDYSSDSMVFGGGTKLTVL | 
9 | 0.079 nM |  |  |  | 5950 pM | 0.0421 pM | 17.4 pM | 6.72e-05 s⁻¹ | 3.87e+06 M⁻¹ s⁻¹ |  |  |  | 2580 pM | 86.8 pM |  |  |  |  |  |  | BDG38.126 (antibody, V domains shown, IgG1) VH: QMQLVESGGGVVQPGRSLRLSCAASGFEFRTYGMHWVRQAPGKGLEWVGVIWDDGSNTHYADSVKGRFTITRDNSKNTLNLQMNSLRAEDTAVYYCVRAPQWYLTAEAFDLWGQGTMVTVSS VL: SYILTQPPSVSVAPGQTARITCGGNLIGAKLVHWYQQKPGQAPVLVIYDDSDRPSRIPERFSGSNIGNTATLTIERVEEGDEADYYCQVWDYSSDHMVFGGGTKLTVL | Kd (recombinant human IL-13 [6]): 29.1 pM; koff (recombinant human IL-13 [6]): 0.000143 s⁻¹; kon (recombinant human IL-13 [6]): 4.92e+06 M⁻¹ s⁻¹
10 | 0.043 nM | 23.8 pM | 0.00131 s⁻¹ | 5.54e+07 M⁻¹ s⁻¹ | 5630 pM | 2.21 pM | 8.27 pM | 2.79e-05 s⁻¹ | 3.38e+06 M⁻¹ s⁻¹ | 0.614 pM | 2.78e-06 s⁻¹ | 4.53e+06 M⁻¹ s⁻¹ |  | 146 pM |  |  |  |  |  |  | BDG38.140 (antibody, V domains shown, IgG1) VH: QMQLVESGGGVVQPGRSLTLSCAASGFEFRTYGMHWVRQAPGKGLEWVGVIWDDGSNTHYADSVKGRFTITRDNSKNTLNLQMNSLRVEDTAVYYCARAPQWYLTAEAFDLWGQGTMVTVSS VL: SYILTQPPSVSVAPGETATITCGGNLIGAKLVHWYQQKPGQAPVLVIYDDSDRPSRIPERFSGSNIGNTATLTIEDVEAGDEADYYCQVWDYSANHMVFGGGTKLTVL | Kd (recombinant human IL-13 [6]): 34.4 pM; koff (recombinant human IL-13 [6]): 0.000168 s⁻¹; kon (recombinant human IL-13 [6]): 4.88e+06 M⁻¹ s⁻¹
11 | 0.18 nM | 27 pM | 0.000847 s⁻¹ | 3.14e+07 M⁻¹ s⁻¹ | 5120 pM |  |  |  |  | 27.1 pM | 0.000386 s⁻¹ | 1.43e+07 M⁻¹ s⁻¹ | 59400 pM | 83.7 pM | 7.27 pM | 3.95e-05 s⁻¹ | 5.44e+06 M⁻¹ s⁻¹ | 21 pM | 0.000116 s⁻¹ | 5.51e+06 M⁻¹ s⁻¹ | BDG38.116 (antibody, V domains shown, IgG1) VH: QMQLVESGGGVVQPGRSLTLSCAASGFEFRTYGMHWVRQAPGKGLEWVAVIWDDGSNTHYADSVKGRFTITRDNSKNTLNLQMNSLRVEDTAVYYCVRAPQWYLTAEAFDLWGQGTMVTVSS VL: SYVLTQPPSVSVAPGQTATITCGGNLIGARLVHWYQQKPGQAPVLVIYDDSDRPSRIPERFSGSNIGNTATLTIERVEAGDEADYYCQVWDYYSDTMVFGGGTKLTVL | 
